Experimental data taken from paper PMC2241821, “A focused antibody library for selecting scFvs expressed at high levels in the cytoplasm” (BMC Biotechnology, 2007).
Residue numbers refer to the chain shown, from its start.

B1: anti-tubulin scFv E12C (scFv, V domains shown)
VH: EVQLVESGGSLVKPGGSLRLSCAASGFTFSNYSMNWVRQAPGKGLEWISSISGSSRYIYYADFVKGRFTISRDNATNSLYLQMNSLRAEDTAVYYCVRSGGNTFDYWGRGTLVTVSS
VL: QSVLTQPASVSGSPGQSITISCAGTSSDVGGYNYVSWYQQHPGKAPKLMIYEDSKRPSGVSNRFSGSKSGNTASLTISGLQAEDEADYYCQQYYRKPWTFGGGTKLAVL
notes: source: E. coli BL21(DE3)pLysS cytoplasm (pET23NN); in cell extract, and purified (Ni-NTA); not shown: c-myc, C-terminal, kept
B2: anti-tubulin scFv F1C (scFv, V domains shown)
VH: EVQLVESGGSLVKPGGSLRLSCAASGFTFSNYSMNWVRQAPGKGLEWISSISGSSRYIYYADFVKGRFTISRDNATNSLYLQMNSLRAEDTAVYYCVRGNADGGENWELFDKWGRGTLVTVSS
VL: B1 VL with Q92L, Y94Q, R95N, K96T, P97L
notes: as for B1

Target: T1, αβ tubulin dimer (pig, UniProt P02550;P02554)
T1 construct: source: purified from pig brain
Assay: ELISA; tubulin coated on a Nunc Maxisorp 96-well plate; 5-20 μl of cytoplasmic extract of E. coli expressing the scFv; revealed with 9E10 and HRP anti-mouse IgG; also done in presence or absence of 10 mM DTT
Settings: one partner purified

Binder | binding result
B1 | binds
B2 | binds
